{"source": "paper PMC9435672", "about": "“Structure of angiogenin dimer bound to double-stranded RNA”", "binders": {"B1": {"name": "N19-RNA duplex (dsRNA)", "RNA 1": "GCCCGCCUGUCACGCGGGC", "RNA 2": "GCCCGCCUGUCACGCGGGC"}}, "molecular_target": "angiogenin H114A (hAng, RNase 5) (Homo sapiens, UniProt P03950 25-147, H138A)", "sequence (P03950 25-147 H138A)": "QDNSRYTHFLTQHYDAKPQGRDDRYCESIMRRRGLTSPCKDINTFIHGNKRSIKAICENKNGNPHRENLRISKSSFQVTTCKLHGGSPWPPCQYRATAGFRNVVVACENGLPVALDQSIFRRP", "assay": "X-ray crystallography; sequence-independent backbone contacts except Arg24 (C38, C32); RNA does not reach active site; crystals at 277 K; Complex: 20 mM Tris pH 8.0, 120 mM NaCl, on ice 30 min, RNA:protein 1.2:1; crystallization reservoir 200 mM NaCl, 20% PEG 6000, 100 mM HEPES pH 7.0, 277 K", "settings": "protein: recombinant; tags: none stated (pET-26b(+)); chain copies: 2; self-duplex of 2 identical strands, blunt; designed as stem-loop but duplex in crystal", "data": [{"binder": "B1", "values": [{"measurement": "binding result", "value": "binds"}]}]}
